In one test the target is His-T7-hnRNP C1 ΔRRM (UniProt P07910). Description: SEC. For orientation: SEC sorts molecules by how far they enter the pores of the column.
A further test has as its target His-T7-hnRNP C1 ΔACIDIC (UniProt P07910). Description: SEC.

The term stoichiometry N denotes a count of units in the complex or per binding partner.

For “His-T7-hnRNP C1 ΔRRM (from UniProt P07910-2 1-293) (natural protein)”, the stoichiometry N in the test with His-T7-hnRNP C1 ΔRRM was 4.

In turn, “His-T7-hnRNP C1 ΔACIDIC (from UniProt P07910-2 1-293) (natural protein)” yielded a stoichiometry N in the test with His-T7-hnRNP C1 ΔACIDIC of 2.
